This test deals with T1, IL-17AA homodimer (human, UniProt Q16552 24-155).
T1 construct: also called IL-17A homodimer
T1 sequence: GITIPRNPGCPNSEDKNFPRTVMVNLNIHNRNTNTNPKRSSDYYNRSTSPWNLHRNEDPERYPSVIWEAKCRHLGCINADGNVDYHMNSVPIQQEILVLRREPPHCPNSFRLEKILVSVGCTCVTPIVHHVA
As to the kind of experiment: ELISA, plate coated with IL-17AA; reference of the relative-potency calculation.

B1: anti-IL-17A/F antibody MCAF5352A, Reference Material (composition comprising 2% of the glycosylation variant) (antibody, human IgG1, kappa, V domains shown)
VH: EVQLVESGGGLVQPGRSLRLSCAASGFTFDDYAMHWVRQAPGKGLEWVSGINWSSGGIGYADSVKGRFTISRDNAKNSLYLQMNSLRAEDTALYYCARDIGGFGEFYWNFGLWGRGTLVTVSS
VL: not shown
notes: Produced in CHO cells; Predominantly the main species, which is not glycosylated in the variable region, with about 2% Peak 1; also called antibody standard; sample with 2% glycosylation variants
Turning to B1, the binding result is on record as “binds”.

Values taken from patent US20180079807A1 (Genentech, published 2018).
